Consider two molecules from US9518103B2, “Optogenetic probes for measuring membrane potential” (President and Fellows of Harvard College, priority 2014, dated 2016).

Where two headings read alike, the source gives them in different places.

Data set [1] can be described thus: Quantum yield of solubilized protein (Cy5 reference). In kind it is physicochemical. The following applies: for Quantum yield / Quantum yield relative to Arch D95N: excitation at 600 nm. The protocol:
Solubilization and spectroscopic characterization of QuasAr1 and QuasAr: E. coli expressing QuasAr1 and QuasAr2 were grown in 12 mL LB medium with 200 μg/ml ampicillin overnight. The next day, 12 mL of liquid LB medium containing 50 μM retinal, 200 μg/ml ampicillin and 0.1% arabinose was added into the overnight culture, followed by additional incubation at 37° C. for 4 hours. The cell pellets were collected by centrifugation and lysed by suspension in B-PER solution (Pierce). The cytoplasmic fraction was discarded after centrifugation and the colored insoluble fraction was resuspended in phosphate buffered saline (PBS) containing 1.5% n-dodecyl-β-D-maltopyranoside (Affymetrix, Inc.). The suspension was homogenized by an ultrasonic homogenizer and centrifuged (17,000 g for 15 mins, 4° C.). The solubilized protein in the supernatant was used for in vitro spectroscopic characterization.
Absorption spectra were recorded on a DU-800 UV-visible spectrophotometer (Beckman) and fluorescence spectra were recorded on a Safire2 plate reader (Tecan). Cy5 carboxylic acid (Cyandye) was used as the reference for quantum yield measurement. Quantum yield measurements were performed on a series of dilutions of each protein solution and standard, with absorbance values ranging from 0.01 to 0.05 at 600 nm. The fluorescence emission spectra of each dilution were recorded with excitation at 600 nm and the total fluorescence intensities obtained by integration. Integrated fluorescence intensity vs. absorbance was plotted for each protein and each standard. Quantum yields, Φ, were determined from the slopes (S) of each line using the equation: Φprotein=Φstandard×(Sprotein/Sstandard).

Data set [2] deals with cultured rat hippocampal neurons. To be noted: for signal-to-noise ratio (SNR) for single APs: 640 nm; for photobleaching time constant: continuous illumination 640 nm; for broadening of optically recorded AP relative to electrical waveform at 70% maximum depolarization: room temperature, 2 kHz frame rate; for r.m.s. temporal jitter of AP timing relative to patch clamp: sub-frame interpolation. On the technique in general: The patch-clamp technique gives a direct electrical read-out from membranes.

For data set [3] the test system is unchanged. The data set can be described thus: Single-trial detection of neuronal action potentials with eFRET GEVIs. The following applies: 3 W/cm^2 illumination, exposure times compatible with single action potentials. The format is cell-based. From the text: We further characterized the most sensitive eFRET voltage sensors via transient transfection in cultured rat hippocampal neurons. […] Injection of current pulses via a patch pipette (500-600 pA, 5-10 ms, 5 Hz) induced trains of action potentials, which induced downward fluorescence transients of 12% (YFP), 12% (mOrange2), 7% (mRuby2).
The signal-to-noise ratio (SNR) of fluorescence detection, defined as the ratio of the peak amplitude to standard deviation of fluorescence at the baseline, was 6.6 (YFP), 11.6 (mOrange2), and 10.5 (mRuby2). In all cases images were acquired at 1 kHz with 3 W/cm^2 illumination intensity. Previous measurements with QuasAr2 reported an SNR of 30-70 at the same bandwidth but with 800 W/cm^2 illumination.

B1: QuasAr1: Archaerhodopsin 3 variant with mutations P60S, T80S, D95H, D106H, F161V; genetically encoded voltage indicator (protein)
chain: MDPIALQAGYDLLGDGRPETLWLGIGTLLMLIGTFYFLVRGWGVTDKDAREYYAVTILVSGIASAAYLSMFFGIGLTEVSVGGEMLDIYYARYAHWLFTTPLLLLHLALLAKVDRVTIGTLVGVDALMIVTGLIGALSHTAIARYSWWLFSTICMIVVLYVLATSLRSAAKERGPEVASTFNTLTALVLVLWTAYPILWIIGTEGAGVVGLGIETLLFMVLDVTAKVGFGFILLRSRAILGDTEAPEPSAGADVSAAD
In the case of B1, in data set [1], the “fluorescence quantum yield enhanced relative to Arch(D95N)” value was found to be 19 fold, the Quantum yield was 8 × 10^−3 and the “Quantum yield relative to Arch D95N” value was 19. Besides, in data set [2] (300 W/cm^2), the “equivalent electrical noise level” value stood at 4.3 mV and the photobleaching time constant came out at 440 s. Further, the “signal-to-noise ratio (SNR) for single APs” value (“signal-to-noise ratio (SNR)” for short) in data set [2] (300 W/cm^2, 1 kHz frame rate) was determined as 21±2. Moreover, the “signal-to-noise ratio (SNR)” value in data set [2] (800 W/cm^2, 1 kHz frame rate) was 32±4. Moreover, the “equivalent electrical noise level” value in data set [2] (800 W/cm^2) came to 3.0 mV. The “r.m.s. error in timing” value in data set [2] (optically induced APs, soma, sub-frame interpolation vs patch clamp) worked out at 54 μs. Moreover, in data set [2] (mean±s.d.), the “broadening of optically recorded AP relative to electrical waveform at 70% maximum depolarization” value is recorded as “did not introduce detectable broadening”. Also, the “r.m.s. temporal jitter of AP timing relative to patch clamp” value in data set [2] was 44 μs.

B2: QuasAr2: Archaerhodopsin 3 variant with mutations P60S, T80S, D95Q, D106H, F161V; genetically encoded voltage indicator (protein)
chain: MDPIALQAGYDLLGDGRPETLWLGIGTLLMLIGTFYFLVRGWGVTDKDAREYYAVTILVSGIASAAYLSMFFGIGLTEVSVGGEMLDIYYARYAQWLFTTPLLLLHLALLAKVDRVTIGTLVGVDALMIVTGLIGALSHTAIARYSWWLFSTICMIVVLYVLATSLRSAAKERGPEVASTFNTLTALVLVLWTAYPILWIIGTEGAGVVGLGIETLLFMVLDVTAKVGFGFILLRSRAILGDTEAPEPSAGADVSAAD
With B2, in data set [1], the “fluorescence quantum yield enhanced relative to Arch(D95N)” value is reported as 10 fold, the Quantum yield was 4 × 10^−3 and the “Quantum yield relative to Arch D95N” value came out at 10. Also, in data set [3], the direct fluorescence entry is given as “not detectable”. Also, the “single-trial SNR” value in data set [2] (34° C., 640 nm 300 W/cm^2) amounted to 41±3. Besides, in data set [2] (34° C., mean±s.d.), the “broadening of optically recorded AP relative to electrical waveform” value came to 180±120 μs. In data set [2] (300 W/cm^2), the “equivalent electrical noise level” value was determined as 2.2 mV and the photobleaching time constant stood at 1020 s. The “signal-to-noise ratio (SNR)” value in data set [2] (300 W/cm^2, 1 kHz frame rate) was determined as 41±4. Also, the “equivalent electrical noise level” value in data set [2] (800 W/cm^2) is recorded as 1.5 mV. For the same molecule, in data set [2] (continuous illumination at 300 W/cm^2, 30 min), the “fidelity of AP reporting (red light phototoxicity test)” value amounted to 100%. In data set [2] (mean±s.d.), the “broadening of optically recorded AP relative to electrical waveform at 70% maximum depolarization” value is 650±150 μs. In data set [2], the “r.m.s. temporal jitter of AP timing relative to patch clamp” value amounted to 61 μs.
